Experimental findings from publication PMC6179962, “POLE3-POLE4 Is a Histone H3-H4 Chaperone that Maintains Chromatin Integrity during DNA Replication” (Molecular Cell, 2018) are described below.

Assay [1] concerns the target tagged POLE3-POLE4 complex (GST-Pole4/His-POLE3) (human) (UniProt Q9NR33). Nature of the assay: pull-down; as a2 but 300 mM NaCl.
The target of another assay is T1, GST-tagged POLE3 (human, UniProt Q9NRF9 1-147).
T1 construct: DNA polymerase epsilon subunit POLE3, human, full length; cloned in pGEX 6P-1; also called GST-POLE3; source: E. coli BL21(DE3) pLysS, purified (glutathione-Sepharose 4B)
T1 sequence (looked up): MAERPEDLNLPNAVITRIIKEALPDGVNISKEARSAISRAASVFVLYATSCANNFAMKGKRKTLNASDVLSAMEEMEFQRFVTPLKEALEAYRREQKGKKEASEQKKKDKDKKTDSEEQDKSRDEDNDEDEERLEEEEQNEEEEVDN
Briefly: pull-down; GST-tagged POLE3 or POLE4 (WT or mutant) on glutathione beads with His-tagged POLE4 or POLE3; 150 mM and 1 M NaCl (Figures S1A, S1B); salt of Figure 1C not told. The conditions noted are these: both partners purified.

The target of the next assay is T2, His-tagged POLE3 (human, UniProt Q9NRF9 1-147).
T2 construct: DNA polymerase epsilon subunit POLE3, human; cloned via Gateway into pDEST17; also called His-POLE3; source: E. coli BL21(DE3) pLysS, purified (Ni-NTA)
T2 sequence (looked up): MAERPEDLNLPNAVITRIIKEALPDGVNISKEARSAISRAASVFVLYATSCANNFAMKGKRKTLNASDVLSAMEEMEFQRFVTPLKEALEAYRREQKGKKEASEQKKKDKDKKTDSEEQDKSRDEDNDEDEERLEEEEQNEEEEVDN
The description is as above. The conditions noted are these: both partners purified.

In assay [1], “purified H3-H4 histones (H3.3 variant) (from UniProt P84243 1-136; P62805 1-103) (complex)” had a percent of the interaction at 150 mM NaCl of 50%.

B1: His-tagged POLE4 (natural protein, human, UniProt Q9NR33 1-117, looked up)
chain: MAAAAAAGSGTPREEEGPAGEAAASQPQAPTSVPGARLSRLPLARVKALVKADPDVTLAGQEAIFILARAAELFVETIAKDAYCCAQQGKRKTLQRRDLDNAIEAVDEFAFLEGTLD
notes: DNA polymerase epsilon subunit POLE4, human; cloned via Gateway into pDEST17; also called His-POLE4; source: E. coli BL21(DE3) pLysS, purified (Ni-NTA)
On to B1, for which the binding result with GST-tagged POLE3 was “binds”.

B2: GST-tagged POLE4 (natural protein, human, UniProt Q9NR33 1-117, looked up)
chain: MAAAAAAGSGTPREEEGPAGEAAASQPQAPTSVPGARLSRLPLARVKALVKADPDVTLAGQEAIFILARAAELFVETIAKDAYCCAQQGKRKTLQRRDLDNAIEAVDEFAFLEGTLD
notes: DNA polymerase epsilon subunit POLE4, human, full length; cloned in pGEX 6P-1; also called GST-POLE4; source: E. coli BL21(DE3) pLysS, purified (glutathione-Sepharose 4B)
Consider B2, for which the binding result in the assay with His-tagged POLE3 is “binds”.
